We go through 3 molecules from patent US9255257B2, “PmST1 mutants for chemoenzymatic synthesis of sialyl lewis X compounds” (THE REGENTS OF THE UNIVERSITY OF CALIFORNIA, priority 2011, dated 2016).

Substitutions are numbered along the chain they refer to. Names may count otherwise. “Also recorded” adds a separate entry of the source.

Series [1] in a line: α2-3-sialidase activity assay with sialyl Le^x substrate (HPLC). In kind it is biochemical. To be noted: for Neu5Ac cleaved from Neu5Acα2-3Le^xβMU: substrate 1 mM, enzyme 4 mg mL^−1, MES pH 5.5, 37° C. As for the experimental part:
The α2-3-sialidase activity assays of PmST1 and mutants. The reactions were carried out in duplicate in a total volume of 10 μL at 37° C. for 20 hr in MES buffer (100 mM, pH 5.5) containing Neu5Acα2-3Le^xβMU (1 mM) and an enzyme (4 mg mL^−1). Aliquots of 1 μL were withdrawn at 1 hr, 6 hr and 20 hr, and analyzed by HPLC as described above for the α2-3-sialyltransferase assays.

A short description of series [2]: HPLC time course of PmST1-catalyzed α2-3-sialylation of Le^xβMU. To be noted: Le^xβMU 1 mM, one equivalent of CMP-Neu5Ac. In kind it is biochemical. The text has this: Numbers in parentheses represent the % consumption of CMP-Neu5Ac by capillary electrophoresis (CE) assays.
In fact, donor hydrolysis has been observed in other glycosyltransferase-catalyzed reactions that lead to lower synthetic yields. […] Two recent papers discussed the donor hydrolysis activities of human blood group A and B glycosyltransferases (GTA and GTB) which are Mn^2+-dependent and the UDP-Gal hydrolysis activity of GTB is increased in the presence of an acceptor substrate analog. Nevertheless, the effect of donor hydrolysis of glycosyltransferases on glycosylation processes has not been investigated in detail. In addition, no strategy has been reported for improving the yields of glycosyltransferase-catalyzed reactions by decreasing donor hydrolysis activity.

Series [3] in a line: Thermal stability studies by HPLC. In kind it is physicochemical. To be noted: incubating at 37° C. for up to 2 hours. The method, then: Stability studies by HPLC. Thermal stability studies were carried out by incubating wild-type PmST1 or E271F/R313Y mutant solution (20 μg mL^−1) at 37° C. Samples were withdrawn at various time intervals for enzyme activity assays.
A short description of series [4]: Apparent kinetics of the α2-3-sialyltransferase activity, Le^xβMU acceptor and CMP-Neu5Ac donor (HPLC). In kind it is biochemical. To be noted: acceptor Le^xβMU.
Series [5] in a line: Apparent kinetics of the α2-3-sialidase activity (HPLC, fluorescent sialoside substrate). In kind it is biochemical. To be noted: substrate Neu5Acα2-3LacβMU. The method, then: All the sialidase and α2-3-sialyltransferase assays were performed in an HPLC system. Reactions were stopped by adding 10 μL of ethanol. […] The mobile phase was 25% acetonitrile.
Kinetics of the α2-3-sialidase activity of PmST1 mutants.

Series [6] can be described thus: Kinetics of the donor (CMP-Neu5Ac) hydrolysis activity by capillary electrophoresis. In kind it is biochemical.
Method: The reactions were stopped by adding 10 μL of pre-chilled ethanol. The mixtures were incubated on ice for 30 min and centrifuged at 13,000 rpm for 5 min. The supernatants were diluted with borate buffer (25 mM, pH 9.5) and aliquotes of 5 μL each were injected to a Beckman Coulter P/ACE™ MDQ Capillary Electrophoresis system equipped with a capillary (60 cm×75 μm i.d.) and monitored at 254 nm. The apparent kinetic parameters were obtained by fitting the experimental data (the average values of duplicate assay results) into the Michaelis-Menten equation using Grafit 5.0.
A short description of series [7]: Apparent kinetics of the α2-3-sialyltransferase activity, LacβMU acceptor and CMP-Neu5Ac donor (HPLC). In kind it is biochemical. To be noted: acceptor LacβMU. The method, then:
To obtain the apparent kinetic parameters of LacβMU as the acceptor for the α2-3-sialyltransferase activity, the kinetic assays were performed in duplicate in reaction mixtures of 10 μL containing Tris-HCl buffer (100 mM, pH 8.5), a fixed concentration of CMP-Neu5Ac (1 mM), different concentrations of LacβMU (0.2, 0.5, 1.0, 2.0, 5.0, and 9.0 mM) and the mutant proteins (2 μg mL^−1 of E271F, 2 μg mL^−1 of R313Y, and 1.6 μg mL^−1 of E271F/R313Y). All reactions were allowed to proceed at 37° C. for 5 min (E271F), 7 min (R313Y), and 10 min (E271F/R313Y). The apparent kinetic parameters were obtained by fitting the experimental data (the average values of duplicate assay results) into the Michaelis-Menten equation using Grafit 5.0.
To obtain the apparent kinetic parameters of CMP-Neu5Ac as the donor for the α2-3-sialyltransferase activity, the kinetic assays were performed in duplicate in reaction mixtures of 10 μL containing Tris-HCl buffer (100 mM, pH 8.5), a fixed concentration of LacβMU (1 mM), different concentrations of CMP-Neu5Ac (0.1, 0.2, 0.5, 1.0, 2.0, 5.0, 10.0 and 20.0 mM) and the mutant proteins (2 μg mL^−1 of E271F, 2 μg mL^−1 of R313Y, and 1.6 μg mL^−1 of E271F/R313Y). All reactions were allowed to proceed at 37° C. for 2 min (E271F), 7 min (R313Y), and 5 min (E271F/R313Y). The apparent kinetic parameters were obtained by fitting the experimental data (the average values of duplicate assay results) into the Michaelis-Menten equation using Grafit 5.0.
All the sialidase and α2-3-sialyltransferase assays were performed in an HPLC system. Reactions were stopped by adding 10 μL of ethanol. After necessary dilutions were performed to adjust the concentrations of the fluorescent-labeled compounds, the samples were then kept on ice until aliquots of 8 μL were injected and analyzed by a Shimadzu LC-6AD system equipped with a membrane on-line degasser, a temperature control unit, and a fluorescence detector (Shimadzu RF-10AXL). A reverse-phase Premier C18 column (250×4.6 mm i.d., 5 μm particle size, Shimadzu) protected with a C18 guard column cartridge was used. The mobile phase was 25% acetonitrile. The fluorescent compounds LacβMU and Neu5Acα2-3LacβMU were detected by excitation at 325 nm and emission at 372 nm.
Kinetics of the α2-3-sialyltransferase activity of PmST1 mutants by HPLC analysis. […] The supernatants were diluted with 25% acetonitrile and kept on ice until aliquots of 8 μL were injected and analyzed by the Shimadzu LC-6AD system equipped with a membrane on-line degasser, a temperature control unit, and a fluorescence detector (Shimadzu RF-10AXL). […] The fluorophore (MU)-labeled compounds were detected by excitation at 325 nm and emission at 372 nm. […]

B1: WT: multifunctional α2-3-sialyltransferase from Pasteurella multocida (PmST1), wild type sequence SEQ ID NO: 13; control enzyme (protein, listed as Pasteurella multocida)
chain: MKNRRLNFKLFFLIIFSLFSTLSWSKTITLYLDPASLPALNQLMDFTQNNEDKTHPRIFGLSRFKIPDNIITQYQNIHFVELKDNRPTEALFTILDQYPGNIELNIHLNIAHSVQLIRPILAYRFKHLDRVSIQQLNLYDDGSMEYVDLEKEENKDISAEIKQAEKQLSHYLLTGKIKFDNPTIARYVWQSAFPVKYHFLSTDYFEKAEFLQPLKEYLAENYQKMDWTAYQQLTPEQQAFYLTLVGFNDEVKQSLEVQQAKFIFTGTTTWEGNTDVREYYAQQQLNLLNHFTQAEGDLFIGDHYKIYFKGHPRGGEINDYILNNAKNITNIPANISFEVLMMTGLLPDKVGGVASSLYFSLPKEKISHIIFTSNKQVKSKEDALNNPYVKVMRRLGIIDESQVIFWDSLKQL
modifications: PmST1 wild-type glycosyltransferase family 80 (GT80), GT80 sialyltransferase, Pm0188Ph
notes: control enzyme
As to B1, the “Neu5Ac cleaved from Neu5Acα2-3Le^xβMU” value in series [1] (1 h) worked out at 2.0%; in series [1] (6 h) it was 7.0%; in series [1] (20 h), 7.5%. Also, the “time to reach yield plateau” value in series [2] was at most 2 min. Besides, the “yield plateau of sialylation of Le^xβMU” value in series [2] is listed as 1.1-1.3%. Further, the “thermal stability of α2-3-sialyltransferase activity (FIG. 3, in words)” value in series [3] is “did not decrease their activities significantly”.

B2: M144H (protein)
chain: B1 chain with M144H
Take B2: the “increase of efficiency of α2-3-sialyltransferase activity compared to WT” value in series [4] worked out at 2.6 fold. The “decrease of α2-3-sialidase activity (catalytic efficiency kcat/Km) compared to wild-type PmST1” value in series [5] was 594 fold. Also, the “sialidase activity with Neu5Acα2-3Le^xβMU as substrate (in words)” value in series [1] is listed as “increased sialidase activity compared to the WT PmST1”. Besides, the “Neu5Ac cleaved from Neu5Acα2-3Le^xβMU” value is 10.0% in series [1] (1 h), 24.5% in series [1] (6 h) and 34.0% in series [1] (20 h). Also, the “decrease of efficiency of CMP-Neu5Ac (donor) hydrolysis activity compared to WT” value in series [6] was determined as 3.3 fold. In addition, the “increase of Km value, donor hydrolysis, compared to WT” value in series [6] came out at 8.7 fold. In series [6], the “increase of kcat value, donor hydrolysis, compared to WT” value was found to be 2.6 fold. Also, the “decrease of α2-3-sialyltransferase activity compared to WT” value in series [7] is 1.3 fold.

B3: M144D (protein, listed as Pasteurella multocida)
chain: B1 chain with M144D
modifications: PmST1 wild-type glycosyltransferase family 80 (GT80), GT80 sialyltransferase, Pm0188Ph
As for B3, the “change of efficiency of α2-3-sialyltransferase activity compared to WT (in words)” value in series [4] is recorded as “did not change the efficiency of the α2-3-sialyltransferase activity of PmST1 significantly; also recorded: without appreciably changing the efficiency of the α2-3-sialyltransferase activity”. Also, the “decrease of α2-3-sialidase activity (catalytic efficiency kcat/Km) compared to wild-type PmST1” value in series [5] came out at 5588 fold. Further, the “sialidase activity with Neu5Acα2-3Le^xβMU as substrate (in words)” value in series [1] is recorded as “no sialidase activity”. Besides, in series [6], the “decrease of efficiency of CMP-Neu5Ac (donor) hydrolysis activity compared to WT” value was 20 fold; the “decrease of kcat value, donor hydrolysis, compared to WT” value is listed as 4.2 fold; the “increase of Km value, donor hydrolysis, compared to WT” value stood at 4.9 fold. Moreover, in series [7], the “decrease of kcat value, α2-3-sialyltransferase activity, compared to WT” value was determined as 2 fold; the “decrease of α2-3-sialyltransferase activity compared to WT” value was found to be 18 fold; the “increase of Km value, α2-3-sialyltransferase activity, compared to WT” value turned out to be 9 fold.
